# Assay results published in paper PMC3744643.
# Experiments:
# Conditions in all cases: 10 mM Tris-HCl pH 7.5, 50 mM NaCl, 1 mM MgCl2, 0.5 mM EDTA, 0.5 mM DTT, 0.05 mg/ml poly(dI-dC), room temperature, 30 min; footprinting: same buffer, then …
# [1] = system: T1, His-AphA (Vibrio parahaemolyticus RIMD 2210633), ORF:4cf93ac0; assay: DNase I footprinting
# T1 sequence: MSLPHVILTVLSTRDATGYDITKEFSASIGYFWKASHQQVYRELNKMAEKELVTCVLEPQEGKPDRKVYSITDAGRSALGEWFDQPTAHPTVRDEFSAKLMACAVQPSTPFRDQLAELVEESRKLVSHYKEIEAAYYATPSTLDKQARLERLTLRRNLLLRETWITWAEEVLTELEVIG
# [2] = target: T2, His-OpaR (Vibrio parahaemolyticus RIMD 2210633) (UniProt Q79YV4); assay: DNase I footprinting
# T2 sequence: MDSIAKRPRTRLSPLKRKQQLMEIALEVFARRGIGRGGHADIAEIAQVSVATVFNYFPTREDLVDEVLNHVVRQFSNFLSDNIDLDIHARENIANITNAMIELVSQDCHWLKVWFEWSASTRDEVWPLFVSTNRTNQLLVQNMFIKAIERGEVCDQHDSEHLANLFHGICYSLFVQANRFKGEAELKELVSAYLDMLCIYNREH
# [3] = system: T1, His-AphA (Vibrio parahaemolyticus RIMD 2210633), ORF:4cf93ac0; assay: EMSA
# [4] = target: T2, His-OpaR (Vibrio parahaemolyticus RIMD 2210633); assay: EMSA
sequence,measurement,setting,value
GAGTTGCTTCATAATAACTATTATTAGTTATAAATATCGCTTAATTTAAATCTAATTTAAAGATATAAAGGAGCGTATTTAAAATGAAGTTTTTGATACATCAATCATTAATTATCATTATTCAGATAATTTAATTAATACGAAATATGTCAATTAATAATGCTCTAGGAGATTAGCATGCAGTCTAATACGTATCTTAAATACGCAGATATTAAAGGTGAAGCGACAGCGGAAC (double strand) [VPA1027 (hcp2) promoter footprinting probe],binding,[1],no binding
same,binding,[2],binds
AGCGGAGTCTTGTTTATTAACGTTTTTAGCGGGTTCAATTGCATTTTCTCTTTTTTGAGTCTTTACAATTTTTGTTTTATCTCCGCTATCGCTGCTATTTATAGATTTGTCTTTATTTTTTTCTTCCATCACAAGGACTCCATATAAATGATGGGGTTAATATATATATTCCTGCTAAATGAAAAATACTTCGGTTAGATTTTCTCG (double strand) [VPA1043 promoter probe (EMSA and footprinting)],binding,[3],no binding
same,binding,[4],binds
same,binding,[1],no binding
same,binding,[2],binds
TTGTGGAAACTCGTTATGGTCAATACCAATTTCATGAAAAACCTCGCCAAAGACCTGCTAAATATTTATATATCGATTTTTATAATTAGATTTGAAGCTTTAATTATTAACATTAAGATTAATAGAGTTCTTATAGCTGTTATAAAAACTATTGACGGCATAATGAATCATTTTTTTATCAAAGCAATCATGAATTGTTGAACAATTTTAAATATCCAACCAGGTTCAAATTTTTGACACTCAAACTTTCACCCGTCAA (double strand) [VPA1044 promoter probe (EMSA and footprinting)],binding,[3],no binding
same,binding,[4],binds
same,binding,[1],no binding
same,binding,[2],binds
